Test results reported in PMC4938799, “LD Motif Recognition by Talin: Structure of the Talin-DLC1 Complex” (Structure(London, England:1993), 2016).
Positions count from the first letter of the chain named. Names and notes keep the numbering of the source. “Also recorded” adds a separate entry of the source.

How the values were obtained:
Format in all cases: cell-based
[1] = system: A549 human non-small cell lung cancer line; test: Transwell cell migration assay; details: transfected A549, transwell, 24 h; mean over three experiments
Description: (§1) Figure 6 Talin R8 Mutations Disrupt the Interaction with DLC1 and Affect Its Biological Activity (A) Wild-type GST-talin fragments pull down more DLC1 than the 2E mutants. Extracts of HEK293T cells transfected with GFP-DLC1 and GST-talin constructs were subjected to pull-down assays with glutathione beads followed by immunoblotting with anti-GST and anti-DLC1 on the same membrane (top). The transfected GFP-DLC1 in each sample is shown by the anti-DLC1 blot (bottom) as a loading control. (B) Wild-type GST-talin fragments compete efficiently with endogenous talin to form a complex with DLC1. The supernatants collected after pull-down assay from (A) were reused for co-immunoprecipitation with an anti-talin antibody and blotted with anti-DLC1 (top). A small aliquot from each lane was blotted for endogenous talin as a loading control (bottom). (C) Co-expression of GST or GST-talin fragments (wild-type or 2E mutant) with GFP DLC1 in A549 cells. […] Transfected A549 cells were cultured in G418 for 3 weeks, and colonies counted and quantitated (top). […] Transfected A549 cells were grown for 3 weeks in soft agar, and colonies counted and quantitated (top). […] Lysates from migrated cells were quantitated (top), and representative microscopic images of the migrated cells are shown (bottom). […]

[2] = system: A549 human non-small cell lung cancer line; test: Growth in soft agar; details: transfected A549, 3 weeks; mean over three experiments
Description: as §1

[3] = system: A549 human non-small cell lung cancer line; test: G418 (monolayer) colony growth assay; details: transfected A549, G418 for 3 weeks; mean over three experiments
Description: as §1

GFP-DLC1 = test: GST pull-down of GFP-DLC1 in HEK 293T cells; details: HEK 293T cells co-transfected with GFP-DLC1 and GST-tagged talin constructs, immunoblot
Description: We reported previously that wild-type talin R8 is sufficient to form a complex with full-length DLC1 in cells ([Li et al., 2011]). To evaluate the effects of the single K1530E and K1544E and double K1530E/K1544E (2E) R8 mutants on the complex formation in vivo, we engineered GST-tagged R8 constructs into isogenic mammalian expression plasmids and co-transfected them with GFP-DLC1 into HEK 293T cells. Complex formation was determined by a GST pull-down assay.
The plasmids expressing GFP-DLC1 and GST fusion proteins with talin rod fragments encoding talin amino acids 1,288–1,646 and 1,453–1,580 (R8) were described previously ([Li et al., 2011]). The plasmid encoding 1,352–1,580 (R7R8) was engineered by PCR and subcloned into a eukaryotic expression vector, PEBG. HEK293T cells were transfected by Lipofectamine 2000, and DLC1-null lung adenocarcinoma cell lines A549 and H358 cells were transfected by Lipofectamine 3000 according to the manufacturer’s instructions (Invitrogen). Cells were co-transfected with plasmids expressing GFP-DLC1 or Paxillin-DDK and GST, GST-talin fragments, or vector at a ratio of 1:2.5. Cells were incubated at 37°C in a humidified 5% CO2 atmosphere. In vivo pull-down assay, co-immunoprecipitation, immunoblotting, G418 colony growth, soft agar growth, and cell migration assays were described previously ([Qian et al., 2009]). All experiments were conducted in triplicate.
Figure S2, related to Figures 4 and 5. […]
R8 talin fragment were co-transfected with GFP-DLC1 into 293T cells. Cell extracts were subjected
(1 picture or pasted object on this page, not shown here) […]
to pull-down assay with glutathione beads followed by immunoblotting with anti-GST and anti-DLC1 on the same membrane (top). The transfected GFP-DLC1 in each sample is shown by the anti-DLC1 blot (bottom) as a loading control. […]
HEK 293T cells were transfected by lipofectamine 2000 and DLC1-null lung adenocarcinoma cell lines A549 and H358 cells were transfected by lipofectamine 3000 according to manufacturer instructions (Invitrogen). Cells were co-transfected with plasmids expressing GFP-DLC1 or Paxillin-DDK and GST, GST-talin fragments, or vector at a ratio of 1:2.5. Cells were incubated at 37 °C in a humidified 5% CO2 atmosphere.
In vivo pull-down assay, co-immunoprecipitation, and immunoblotting - As described previously (Qian et al., 2009), two days after transfection, cell extracts were collected using golden lysis buffer (GLB: 20 mM Tris pH 7.9, 137 mM NaCl, 10% glycerol, 1% Triton, 5 mM EDTA, 1 mM EGTA, 1 mM Na3VO4, 10 mM NaF, 1 mM sodium pyrophosphate, 0.5 mM β-glycerophosphate, and protease inhibitor cocktail tablet (Roche)). The cleared supernatants were collected, and the amount of protein estimated by BCA kit (Pierce). […]

B1: GFP-DLC1: GFP fusion of full-length DLC1 expressed from plasmid (protein)
chain: MCRKKPDTMILTQIEAKEACDWLRATGFPQYAQLYEDFLFPIDISLVKREHDFLDRDAIEALCRRLNTLNKCAVMKLEISPHRKRSDDSDEDEPCAISGKWTFQRDSKRWSRLEEFDVFSPKQDLVPGSPDDSHPKDGPSPGGTLMDLSERQEVSSVRSLSSTGSLPSHAPPSEDAATPRTNSVISVCSSSNLAGNDDSFGSLPSPKELSSFSFSMKGHEKTAKSKTRSLLKRMESLKLKSSHHSKHKAPSKLGLIISGPILQEGMDEEKLKQLNCVEISALNGNRINVPMVRKRSVSNSTQTSSSSSQSETSSAVSTPSPVTRTRSLSACNKRVGMYLEGFDPFNQSTFNNVVEQNFKNRESYPEDTVFYIPEDHKPGTFPKALTNGSFSPSGNNGSVNWRTGSFHGPGHISLRRENSSDSPKELKRRNSSSSMSSRLSIYDNVPGSILYSSSGDLADLENEDIFPELDDILYHVKGMQRIVNQWSEKFSDEGDSDSALDSVSPCPSSPKQIHLDVDNDRTTPSDLDSTGNSLNEPEEPSEIPERRDSGVGASLTRSNRHRLRWHSFQSSHRPSLNSVSLQINCQSVAQMNLLQKYSLLKLTALLEKYTPSNKHGFSWAVPKFMKRIKVPDYKDRSVFGVPLTVNVQRTGQPLPQSIQQAMRYLRNHCLDQVGLFRKSGVKSRIQALRQMNEGAIDCVNYEGQSAYDVADMLKQYFRDLPEPLMTNKLSETFLQIYQYVPKDQRLQAIKAAIMLLPDENREVLQTLLYFLSDVTAAVKENQMTPTNLAVCLAPSLFHLNTLKRENSSPRVMQRKQSLGKPDQKDLNENLAATQGLAHMIAECKKLFQVPEEMSRCRNSYTEQELKPLTLEALGHLGNDDSADYQHFLQDCVDGLFKEVKEKFKGWVSYSTSEQAELSYKKVSEGPPLRLWRSVIEVPAVPEEILKRLLKEQHLWDVDLLDSKVIEILDSQTEIYQYVQNSMAPHPARDYVVLRTWRTNLPKGACALLLTSVDHDRAPVVGVRVNVLLSRYLIEPCGPGKSKLTYMCRVDLRGHMPEWYTKSFGHLCAAEVVKIRDSFSNQNTETKDTKSR
modifications: left off: GFP, end not stated, kept
notes: GFP fusion of full-length DLC1 expressed from plasmid
- cell migration [1]: suppressed cell migration; also recorded: inhibitory in all three assays
- growth in soft agar [2]: inhibitory in all three assays
- colony growth [3]: suppressed colony formation; also recorded: inhibitory in all three assays

B2: talin R8 K1530E: GST-tagged talin R8 single mutant K1530E (protein)
chain: NSQAGQQGLVEPTQFARANQAIQMACQSLGEPGCTQAQVLSAATIVAKHTSALCNSCRLASARTANPTAKRQFVQSAEEVANSTANLVKTIKALDGDFTEENRAQCRAATAPLLEAVDNLSAFASNPE
modifications: left off: GST, end not stated, kept
- DLC1 binding in GST pull-down (GFP-DLC1): greater reduction in DLC1 binding than K1544E
- DLC1 binding in GST pull-down (GFP-DLC1; listed as GST-talin R1530E): binds DLC1 less well than the K1544E mutant

B3: 2E double mutant: GST-tagged talin R8 K1530E/K1544E double mutant (protein)
chain: B2 chain with K92E
modifications: left off: GST, end not stated, kept
- DLC1 binding in GST pull-down (GFP-DLC1): reduced binding to a greater extent than either single mutant
- DLC1 binding in GST pull-down (GFP-DLC1; listed as talin R8 K1530E/K1544E double mutant): markedly reduced binding
